B1: PSMα2 sequence GIIKFIKGLI (10-residue array peptide) (peptide)
peptide: GIIKFIKGLI
notes: source: 10-residue peptide immobilized on a microarray chip; maker not clearly stated
B2: PSMα3 sequence FVAKLFKFFK (10-residue array peptide) (peptide)
peptide: FVAKLFKFFK
notes: as for B1
B3: PSMα2 sequence IIAGIIKFIK (10-residue array peptide) (peptide)
peptide: IIAGIIKFIK
notes: as for B1

What follows are binders tested against Human wildtype α-syn, Alexa-fluor488-labelled (human, UniProt P37840 1-140) (assay: peptide or protein array). Details: both partners purified.

Binder	binding result
B1	binds
B2	binds
B3	binds

From article PMC8584152, “The Bacterial Amyloids Phenol Soluble Modulins from Staphylococcus aureus Catalyze Alpha-Synuclein Aggregation” (International Journal of Molecular Sciences, 2021)
